Data from patent publication US20250019439A1 (Adimab, published 2025).

Experiments:
ADI-26920 anti-CD3 bsIgG [1] = target: T1, ADI-26920 anti-CD3 bsIgG; test: BLI; tip anti-CD3 bsIgG, solution ADI-34145 Fab
T1 construct: anti-HER2 IgG with one Fab arm replaced by the anti-CD3 scFv (printed 'Vx-VH', read as VL-VH); S354C and Y349C mutations; also called anti-CD3 bsIgG (ADI-26920 scFv); not shown: scFv linker; anti-HER2 Fab arm (heavy and light chain); hinge and Fc with S354C/Y349C
Procedure: (§1) ForteBio affinity measurements were performed generally as previously described (Estep et al., MAbs. 2013 5(2):270-8). Briefly, ForteBio affinity measurements were performed by loading antibody IgG or Fabs on-line onto AHC sensors. Sensors were equilibrated off-line in assay buffer for 30 minutes and then monitored on-line for 60 seconds for baseline establishment. For avid binding measurement, sensors with loaded antibodies were exposed to IgG or Fab solutions for 3 minutes, afterwards they were transferred to assay buffer for 3 minutes for off-rate measurement. Kinetics data were fit using a 1:1 binding model in the data analysis software provided by ForteBio to obtain equilibrium dissociation constant (KD=koff/kₒₙ) values. In each column, tip-immobilized antibodies are listed first and solution antibodies second.
(§2) Additional analysis was conducted using bispecific antibody formats incorporating anti-CD3 antibody variable domains. Bispecific antibodies were prepared using standard IgG formats (bsIgG) with replacement of Fab arms with anti-CD3 scFvs in Vx-VH orientation and with S354C and Y349C mutations for disulfide stabilization. Antibodies used for Fab arm replacement were anti-HER2 IgG antibodies, with one Fab arm from each replaced by a scFv corresponding to a different anti-CD3 antibody. […] In each column, tip-immobilized antibodies are listed first and solution antibodies second. Anti-CD3 antibodies associated with incorporated scFvs are listed by antibody number.

CTL-19613 anti-CD3 bsIgG [2] = target: T2, CTL-19613 anti-CD3 bsIgG (In the assay the two domains were one scFv (VL-VH orientation, linker not given). It replaced one Fab arm of an anti-HER2 IgG; S354C and Y349C mutations are stated for disulfide stabilization.); test: BLI; tip anti-CD3 bsIgG, solution ADI-34145 Fab
T2 construct: anti-HER2 IgG with one Fab arm replaced by the anti-CD3 scFv (printed 'Vx-VH', read as VL-VH); S354C and Y349C mutations; also called anti-CD3 bsIgG (CTL-19613 scFv); not shown: scFv linker between VL and VH; anti-HER2 heavy and light chains of the other arm; hinge and Fc (with S354C / Y349C)
Procedure: as §1, §2

ADI-26913 anti-CD3 bsIgG [3] = target: T3, ADI-26913 anti-CD3 bsIgG; test: BLI; tip anti-CD3 bsIgG, solution ADI-34145 Fab
T3 construct: anti-HER2 IgG with one Fab arm replaced by the anti-CD3 scFv (printed 'Vx-VH', read as VL-VH); S354C and Y349C mutations; also called anti-CD3 bsIgG (ADI-26913 scFv); not shown: scFv linker; anti-HER2 Fab arm (heavy and light chain); hinge and Fc with S354C/Y349C
Procedure: as §1, §2

ADI-26906 anti-CD3 bsIgG [4] = target: T4, ADI-26906 anti-CD3 bsIgG; test: BLI; tip anti-CD3 bsIgG, solution ADI-34145 Fab
T4 construct: anti-HER2 IgG with one Fab arm replaced by the anti-CD3 scFv (printed 'Vx-VH', read as VL-VH); S354C and Y349C mutations; also called anti-CD3 bsIgG (ADI-26906 scFv); not shown: scFv linker; anti-HER2 Fab arm (heavy and light chain); hinge and Fc with S354C/Y349C
Procedure: as §1, §2

CTL-19672 anti-CD3 bsIgG = target: T5, CTL-19672 anti-CD3 bsIgG (In the assay the two domains were one scFv (VL-VH orientation, linker not given). It replaced one Fab arm of an anti-HER2 IgG; S354C and Y349C mutations are stated for disulfide stabilization.); test: BLI; tip anti-CD3 bsIgG, solution ADI-34145 Fab
T5 construct: anti-HER2 IgG with one Fab arm replaced by the anti-CD3 scFv (printed 'Vx-VH', read as VL-VH); S354C and Y349C mutations; not shown: scFv linker between VL and VH; anti-HER2 heavy and light chains of the other arm; hinge and Fc (with S354C / Y349C)
Procedure: as §1, §2

CTL-19613 IgG [5] = test: BLI; tip anti-CD3 IgG, solution ADI-34145 Fab
Procedure: as §1
(§3) CTL-19613 is an IgG1 antibody prepared with anti-CD3 variable domains corresponding with those of clone 12C described in United States Publication Number US 2010/0183615 (e.g., see paragraphs 469-479 and FIG. 25 thereof), which also make up the CD3 binding domain of the bispecific antibody pasotuxizumab. […] In each column, tip-immobilized antibodies are listed first and solution antibodies second.

ADI-26920 IgG [6] = target: T6, ADI-26920 IgG; test: BLI; tip anti-CD3 IgG, solution ADI-34145 Fab
T6 construct: anti-CD3 IgG
Procedure: as §1, §3

CTL-19672 IgG = target: T7, CTL-19672 IgG; test: BLI; tip anti-CD3 IgG, solution ADI-34145 Fab
T7 construct: IgG1 with the anti-CD3 variable domains of clone 38E4v1
Procedure: as §1, §3

ADI-26913 IgG [7] = target: T8, ADI-26913 IgG; test: BLI; tip anti-CD3 IgG, solution ADI-34145 Fab
T8 construct: anti-CD3 IgG
Procedure: as §1, §3

ADI-26916 IgG [8] = target: T9, ADI-26916 IgG; test: BLI; tip anti-CD3 IgG, solution ADI-34145 Fab
T9 construct: anti-CD3 IgG
Procedure: as §1, §3

ADI-26906 IgG [9] = target: T10, ADI-26906 IgG; test: BLI; tip anti-CD3 IgG, solution ADI-34145 Fab
T10 construct: anti-CD3 IgG
Procedure: as §1, §3

ADI-22523 IgG [10] = target: T11, ADI-22523 IgG; test: BLI; tip anti-CD3 IgG, solution ADI-34145 Fab
T11 construct: anti-CD3 IgG
Procedure: as §1, §3

ADI-26920 anti-CD3 bsIgG [11] = target: T1, ADI-26920 anti-CD3 bsIgG; test: BLI; tip anti-CD3 bsIgG, solution ADI-34134 Fab
Procedure: as §1, §2

CTL-19613 anti-CD3 bsIgG [12] = target: T2, CTL-19613 anti-CD3 bsIgG; test: BLI; tip anti-CD3 bsIgG, solution ADI-34134 Fab
Procedure: as §1, §2

ADI-26913 anti-CD3 bsIgG [13] = target: T3, ADI-26913 anti-CD3 bsIgG; test: BLI; tip anti-CD3 bsIgG, solution ADI-34134 Fab
Procedure: as §1, §2

ADI-26906 anti-CD3 bsIgG [14] = target: T4, ADI-26906 anti-CD3 bsIgG; test: BLI; tip anti-CD3 bsIgG, solution ADI-34134 Fab
Procedure: as §1, §2

ADI-22523 anti-CD3 bsIgG = target: T12, ADI-22523 anti-CD3 bsIgG (In the assayed molecule VL and VH are joined as one scFv (printed 'Vx-VH' orientation) by an undisclosed linker and fused to an Fc, paired with an anti-HER2 half-IgG. They are given here as two …); test: BLI; tip anti-CD3 bsIgG, solution ADI-34134 Fab
T12 construct: anti-HER2 IgG with one Fab arm replaced by the anti-CD3 scFv (printed 'Vx-VH', read as VL-VH); S354C and Y349C mutations; not shown: scFv linker between VL and VH; anti-HER2 heavy and light chains; hinge and Fc with S354C/Y349C
Procedure: as §1, §2

ADI-26927 anti-CD3 bsIgG = target: T13, ADI-26927 anti-CD3 bsIgG; test: BLI; tip anti-CD3 bsIgG, solution ADI-34134 Fab
T13 construct: anti-HER2 IgG with one Fab arm replaced by the anti-CD3 scFv (printed 'Vx-VH', read as VL-VH); S354C and Y349C mutations; also called anti-CD3 bsIgG (ADI-26927 scFv); not shown: scFv linker; anti-HER2 Fab arm (heavy and light chain); hinge and Fc with S354C/Y349C
Procedure: as §1, §2

ADI-26921 anti-CD3 bsIgG = target: T14, ADI-26921 anti-CD3 bsIgG; test: BLI; tip anti-CD3 bsIgG, solution ADI-34134 Fab
T14 construct: anti-HER2 IgG with one Fab arm replaced by the anti-CD3 scFv (printed 'Vx-VH', read as VL-VH); S354C and Y349C mutations; also called anti-CD3 bsIgG (ADI-26921 scFv); not shown: scFv linker; anti-HER2 Fab arm (heavy and light chain); hinge and Fc with S354C/Y349C
Procedure: as §1, §2

ADI-26928 anti-CD3 bsIgG = target: T15, ADI-26928 anti-CD3 bsIgG; test: BLI; tip anti-CD3 bsIgG, solution ADI-34134 Fab
T15 construct: anti-HER2 IgG with one Fab arm replaced by the anti-CD3 scFv (printed 'Vx-VH', read as VL-VH); S354C and Y349C mutations; also called anti-CD3 bsIgG (ADI-26928 scFv); not shown: scFv linker; anti-HER2 Fab arm (heavy and light chain); hinge and Fc with S354C/Y349C
Procedure: as §1, §2

ADI-26921 IgG = target: T16, ADI-26921 IgG; test: BLI; tip anti-CD3 IgG, solution ADI-34134 Fab
T16 construct: anti-CD3 IgG
Procedure: as §1, §3

CTL-19613 IgG [15] = test: BLI; tip anti-CD3 IgG, solution ADI-34134 Fab
Procedure: as §1, §3

ADI-26920 IgG [16] = target: T6, ADI-26920 IgG; test: BLI; tip anti-CD3 IgG, solution ADI-34134 Fab
Procedure: as §1, §3

ADI-26913 IgG [17] = target: T8, ADI-26913 IgG; test: BLI; tip anti-CD3 IgG, solution ADI-34134 Fab
Procedure: as §1, §3

ADI-26916 IgG [18] = target: T9, ADI-26916 IgG; test: BLI; tip anti-CD3 IgG, solution ADI-34134 Fab
Procedure: as §1, §3

ADI-26928 IgG = target: T17, ADI-26928 IgG; test: BLI; tip anti-CD3 IgG, solution ADI-34134 Fab
T17 construct: anti-CD3 IgG
Procedure: as §1, §3

ADI-26927 IgG = target: T18, ADI-26927 IgG; test: BLI; tip anti-CD3 IgG, solution ADI-34134 Fab
T18 construct: anti-CD3 IgG
Procedure: as §1, §3

ADI-26906 IgG [19] = target: T10, ADI-26906 IgG; test: BLI; tip anti-CD3 IgG, solution ADI-34134 Fab
Procedure: as §1, §3

ADI-22523 IgG [20] = target: T11, ADI-22523 IgG; test: BLI; tip anti-CD3 IgG, solution ADI-34134 Fab
Procedure: as §1, §3

ADI-26941 IgG = target: T19, ADI-26941 IgG; test: BLI; tip anti-CD3 IgG, solution ADI-34134 Fab
T19 construct: anti-CD3 IgG
Procedure: as §1, §3

T1 sequence (VH, as listed by the source limits assumed, chain 1 of 2): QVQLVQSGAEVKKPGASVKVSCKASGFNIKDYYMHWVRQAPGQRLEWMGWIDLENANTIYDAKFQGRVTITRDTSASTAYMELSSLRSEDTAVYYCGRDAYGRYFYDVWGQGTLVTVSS
T1 sequence (VL, as listed by the source limits assumed, chain 2 of 2): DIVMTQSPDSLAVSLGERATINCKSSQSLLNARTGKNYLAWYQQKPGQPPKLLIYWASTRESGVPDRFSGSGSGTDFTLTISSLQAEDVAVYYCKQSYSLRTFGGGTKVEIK
T11 sequence (VH, as listed by the source limits assumed, chain 1 of 2): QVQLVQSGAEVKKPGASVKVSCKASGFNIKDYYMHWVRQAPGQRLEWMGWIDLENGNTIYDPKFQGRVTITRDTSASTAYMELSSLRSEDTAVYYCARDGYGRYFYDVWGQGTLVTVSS
T11 sequence (VL, as listed by the source limits assumed, chain 2 of 2): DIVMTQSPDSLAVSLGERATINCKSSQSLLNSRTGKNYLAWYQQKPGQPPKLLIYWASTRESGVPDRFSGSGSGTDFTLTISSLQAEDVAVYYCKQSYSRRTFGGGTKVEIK
T9 sequence (VH, as listed by the source, chain 1 of 2): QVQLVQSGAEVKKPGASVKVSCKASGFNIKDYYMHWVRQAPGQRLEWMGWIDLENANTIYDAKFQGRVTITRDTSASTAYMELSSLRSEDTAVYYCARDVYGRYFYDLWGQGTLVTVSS
T9 sequence (VL, as listed by the source, chain 2 of 2): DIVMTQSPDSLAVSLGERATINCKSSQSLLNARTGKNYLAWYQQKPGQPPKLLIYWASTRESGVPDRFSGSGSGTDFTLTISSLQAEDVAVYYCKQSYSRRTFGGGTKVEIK
T8 sequence (VH, as listed by the source limits assumed, chain 1 of 2): as the sequence (VH, as listed by the source, chain 1 of 2) above, with V100Q, L108V counted along it
T8 sequence (VL, as listed by the source limits assumed, chain 2 of 2): as the sequence (VL, as listed by the source, chain 2 of 2) above
T3 sequence (VH, as listed by the source limits assumed, chain 1 of 2): as the sequence (VH, as listed by the source, chain 1 of 2) above, with V100Q, L108V counted along it
T3 sequence (VL, as listed by the source limits assumed, chain 2 of 2): as the sequence (VL, as listed by the source, chain 2 of 2) above
T10 sequence (VH, as listed by the source limits assumed, chain 1 of 2): as the sequence (VH, as listed by the source, chain 1 of 2) above, with V100A, L108V counted along it
T10 sequence (VL, as listed by the source limits assumed, chain 2 of 2): as the sequence (VL, as listed by the source, chain 2 of 2) above
T4 sequence (VH, as listed by the source limits assumed, chain 1 of 2): as the sequence (VH, as listed by the source, chain 1 of 2) above, with V100A, L108V counted along it
T4 sequence (VL, as listed by the source limits assumed, chain 2 of 2): as the sequence (VL, as listed by the source, chain 2 of 2) above
T12 sequence (VH, as listed by the source limits assumed, chain 1 of 2): as the sequence (VH, as listed by the source, chain 1 of 2) above, with A56G, A62P, V100G, L108V counted along it
T12 sequence (VL, as listed by the source limits assumed, chain 2 of 2): as the sequence (VL, as listed by the source, chain 2 of 2) above, with A32S counted along it
T14 sequence (VH, as listed by the source limits assumed, chain 1 of 2): as the sequence (VH, as listed by the source, chain 1 of 2) above, with N55E, A56G, V100A, L108V counted along it
T14 sequence (VL, as listed by the source limits assumed, chain 2 of 2): as the sequence (VL, as listed by the source, chain 2 of 2) above, with R100L counted along it
T16 sequence (VH, as listed by the source limits assumed, chain 1 of 2): as the sequence (VH, as listed by the source, chain 1 of 2) above, with N55E, A56G, V100A, L108V counted along it
T16 sequence (VL, as listed by the source limits assumed, chain 2 of 2): as the sequence (VL, as listed by the source, chain 2 of 2) above, with R100L counted along it
T19 sequence (VH, as listed by the source limits assumed, chain 1 of 2): as the sequence (VH, as listed by the source, chain 1 of 2) above, with N55E, A56G, V100Q, L108V counted along it
T19 sequence (VL, as listed by the source limits assumed, chain 2 of 2): as the sequence (VL, as listed by the source, chain 2 of 2) above, with R100I counted along it
T17 sequence (VH, as listed by the source limits assumed, chain 1 of 2): as the sequence (VH, as listed by the source, chain 1 of 2) above, with N55E, A56G, A97G, V100A, R103L, L108V counted along it
T17 sequence (VL, as listed by the source limits assumed, chain 2 of 2): as the sequence (VL, as listed by the source, chain 2 of 2) above, with R100L counted along it
T15 sequence (VH, as listed by the source limits assumed, chain 1 of 2): as the sequence (VH, as listed by the source, chain 1 of 2) above, with N55E, A56G, A97G, V100A, R103L, L108V counted along it
T15 sequence (VL, as listed by the source limits assumed, chain 2 of 2): as the sequence (VL, as listed by the source, chain 2 of 2) above, with R100L counted along it
T5 sequence (VH, as listed by the source limits assumed, chain 1 of 2): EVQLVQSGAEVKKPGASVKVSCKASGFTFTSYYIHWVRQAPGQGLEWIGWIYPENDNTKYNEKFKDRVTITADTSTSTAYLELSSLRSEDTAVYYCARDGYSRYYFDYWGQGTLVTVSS
T5 sequence (VL, as listed by the source limits assumed, chain 2 of 2): as the sequence (VL, as listed by the source, chain 2 of 2) above, with A32S, G35R, P49S, A57T, E61K, Y98F, S99I, R100L, G105Q counted along it
T7 sequence (VL, as listed by the source limits assumed, chain 2 of 2): as the sequence (VL, as listed by the source, chain 2 of 2) above, with A32S, G35R, P49S, A57T, E61K, Y98F, S99I, R100L, G105Q counted along it
T13 sequence (VH, as listed by the source limits assumed, chain 1 of 2): as the sequence (VH, as listed by the source, chain 1 of 2) above, with N55E, A56G, V100R, R103A, L108V counted along it
T13 sequence (VL, as listed by the source limits assumed, chain 2 of 2): as the sequence (VL, as listed by the source, chain 2 of 2) above, with R100L counted along it
T18 sequence (VH, as listed by the source limits assumed, chain 1 of 2): as the sequence (VH, as listed by the source, chain 1 of 2) above, with N55E, A56G, V100R, R103A, L108V counted along it
T18 sequence (VL, as listed by the source limits assumed, chain 2 of 2): as the sequence (VL, as listed by the source, chain 2 of 2) above, with R100L counted along it

B1: ADI-34145 Fab (Fab, V domains shown)
VH: EVQLLESGGGLVQPGGSLRLSCAASGFTFSSYAMSWVRQAPGKGLEWVSTISGSGGSTYYADSVKGRFTISRDNSKNTLYLQMNSLRAEDTAVYYCARLGGRRGSGSSYYYYYGMDVWGQGTTVTVSS
VL: not shown
notes: Fab made by papain digestion of the IgG
With B1 the Kd (ADI-26920 anti-CD3 bsIgG [1]) was 93.8 nM, the binding result (CTL-19613 anti-CD3 bsIgG [2]) was “no binding” and the Kd (ADI-26913 anti-CD3 bsIgG [3]) was 159 nM. For the same binder, the Kd (ADI-26906 anti-CD3 bsIgG [4]) was 24.4 nM, the binding result (CTL-19672 anti-CD3 bsIgG) was “no binding” and the binding result (CTL-19613 IgG [5]) was “no binding”. For the same binder, the Kd (ADI-26920 IgG [6]) was 8.97 nM, the binding result (CTL-19672 IgG) was “no binding” and the Kd (ADI-26913 IgG [7]) was 3.15 nM. For the same binder, the Kd (ADI-26916 IgG [8]) was 19.4 nM, the Kd (ADI-26906 IgG [9]) was 3.25 nM and the Kd (ADI-22523 IgG [10]) was 3.22 nM.

B2: ADI-34134 Fab (Fab, V domains shown)
VH: QVQLVQSGAEVKKPGSSVKVSCKASGGTFSSYAISWVRQAPGQGLEWMGGIIPIFGTANYAQKFQGRVTITADESTSTAYMELSSLRSEDTAVYYCARGAPNYYGSGGYDDGWFDPWGQGTLVTVSS
VL: EIVLTQSPGTLSLSPGERATLSCRASQSVSSDYLAWYQQKPGQAPRLLIYGASSRATGIPDRFSGSGSGTDFTLTISRLEPEDFAVYYCQQFGRVPTFGGGTKVEIK
notes: as for B1
With B2 the Kd (ADI-26920 anti-CD3 bsIgG [11]) was 28.7 nM, the binding result (CTL-19613 anti-CD3 bsIgG [12]) was “no binding” and the Kd (ADI-26913 anti-CD3 bsIgG [13]) was 74.2 nM. For the same binder, the Kd (ADI-26906 anti-CD3 bsIgG [14]) was 27.2 nM, the Kd (ADI-22523 anti-CD3 bsIgG) was 10.9 nM and the Kd (ADI-26927 anti-CD3 bsIgG) was 48.9 nM. It also gave a Kd (ADI-26921 anti-CD3 bsIgG) of 37.1 nM, a Kd (ADI-26928 anti-CD3 bsIgG) of 110 nM and a Kd (ADI-26921 IgG) of 56.5 nM. The binding result (CTL-19613 IgG [15]) was “no binding”, the Kd (ADI-26920 IgG [16]) was 31 nM and the Kd (ADI-26913 IgG [17]) was 79.8 nM. For the same binder, the Kd (ADI-26916 IgG [18]) was 157 nM, the Kd (ADI-26928 IgG) was 185 nM and the Kd (ADI-26927 IgG) was 38.2 nM. For the same binder, the Kd (ADI-26906 IgG [19]) was 17.8 nM, the Kd (ADI-22523 IgG [20]) was 5.68 nM and the Kd (ADI-26941 IgG) was 138 nM.
